Laboratory results taken from US20230212554A1.

Assays:
[1] = substrate: NP of A/Wisconsin/67/2005(H3N2/H3W) (influenza A virus A/Wisconsin/67/2005 (H3N2)); assay: sandwich ELISA, capture IgG; NP of lysed virus titrated; HRP-NP17 detection
[2] = substrate: NP of A/Wisconsin/67/2005(H3N2/H3W) (influenza A virus A/Wisconsin/67/2005 (H3N2)); assay: sandwich ELISA, capture IgG; NP of lysed virus titrated; HRP-NP16 detection
[3] = substrate: NP of A/Wisconsin/67/2005(H3N2/H3W) (influenza A virus A/Wisconsin/67/2005 (H3N2)); assay: ELISA on virus-infected fixed MDCK cells

Chain of NP of A/Wisconsin/67/2005(H3N2/H3W) (influenza A virus A/Wisconsin/67/2005 (H3N2)) (P03466 whole entry): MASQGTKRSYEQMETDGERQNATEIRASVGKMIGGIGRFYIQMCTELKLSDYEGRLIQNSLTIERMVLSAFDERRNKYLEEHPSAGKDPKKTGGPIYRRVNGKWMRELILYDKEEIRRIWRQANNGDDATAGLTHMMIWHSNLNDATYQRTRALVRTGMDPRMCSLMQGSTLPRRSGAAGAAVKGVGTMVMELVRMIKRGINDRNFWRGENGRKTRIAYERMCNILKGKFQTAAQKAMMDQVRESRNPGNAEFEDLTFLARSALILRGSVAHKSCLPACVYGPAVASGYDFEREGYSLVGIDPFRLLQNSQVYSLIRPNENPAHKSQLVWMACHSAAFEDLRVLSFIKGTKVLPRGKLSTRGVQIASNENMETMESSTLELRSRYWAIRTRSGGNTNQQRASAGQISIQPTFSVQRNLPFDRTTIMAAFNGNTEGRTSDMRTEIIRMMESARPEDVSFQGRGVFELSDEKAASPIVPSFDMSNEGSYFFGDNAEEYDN

B1: NP22 (antibody, V domains shown)
VH: EVQLVESGGGLVQPGGSLRLSCAASGFTISDWSIHWVRQAPGKGLEWVAGIWPYWGSTSYADSVKGRFTISADTSKNTAYLQMNSLRAEDTAVYYCARGFYSWFDYWGQGTLVTVSS
VL: DIQMTQSPSSLSASVGDRVTITCRASQDVFSWVAWYQQKPGKAPKLLISSASSLYSGVPSRFSGSGSGTDFTLTISSLQPEDFATYYCQQSWDYPITFGQGTKVEIKR
- EC50 [1]: 82.8 nM
- EC50 [2]: 91.4 nM

B2: NP19 (antibody, V domains shown)
VH: EVQLVESGGGLVQPGGSLRLSCAASGFTISSWGIHWVRQAPGKGLEWVAGIGPFWGYTSYADSVKGRFTISADTSKNTAYLQMNSLRAEDTAVYYCARFGVDNYGYMDYWGQGTLVTVSS
VL: DIQMTQSPSSLSASVGDRVTITCRASQDVSGWVAWYQQKPGKAPKLLISWSTGLYSGVPSRFSGSGSGTDFTLTISSLQPEDFATYYCQQYFNFPVTFGQGTKVEIKR
- EC50 [1]: 0.765 nM
- EC50 [3]: 0.215 nM
- EC50 [2]: 3.88 nM

B3: NP16 (antibody, V domains shown)
VH: EVQLVESGGGLVQPGGSLRLSCAASGFTIGNSGIHWVRQAPGKGLEWVAWIGPYWGFTSYADSVKGRFTISADTSKNTAYLQMNSLRAEDTAVYYCARFGNHWHLFMDYWGQGTLVTVSS
VL: DIQMTQSPSSLSASVGDRVTITCRASQDVGSYVAWYQQKPGKAPKLLISWTTGLYSGVPSRFSGSGSGTDFTLTISSLQPEDFATYYCQQYFSYPVTFGQGTKVEIKR
- EC50 [1]: 0.891 nM
- EC50 [3]: 0.248 nM
- EC50 [2]: 4.1 nM

B4: NP17 (antibody, V domains shown)
VH: EVQLVESGGGLVQPGGSLRLSCAASGFTISGGSIHWVRQAPGKGLEWVASIWPFGGSTFYADSVKGRFTISADTSKNTAYLQMNSLRAEDTAVYYCARFGHGHNVIMDYWGQGTLVTVSS
VL: DIQMTQSPSSLSASVGDRVTITCRASQDVGYSVAWYQQKPGKAPKLLISSPGGLYSGVPSRFSGSGSGTDFTLTISSLQPEDFATYYCQQYYDYPVTFGQGTKVEIKR
- EC50 [1]: 1.07 nM
- EC50 [2]: 3.09 nM

B5: NP21 (antibody, V domains shown)
VH: EVQLVESGGGLVQPGGSLRLSCAASGFTINGYGIHWVRQAPGKGLEWVAGIWPYGGSTFYADSVKGRFTISADTSKNTAYLQMNSLRAEDTAVYYCARFYNNHGGIMDYWGQGTLVTVSS
VL: DIQMTQSPSSLSASVGDRVTITCRASQDVYFYVAWYQQKPGKAPKLLIYGSRWLYSGVPSRFSGSGSGTDFTLTISSLQPEDFATYYCQQYSNFPVTFGQGTKVEIKR
- EC50 [1]: 0.848 nM
- EC50 [2]: 2.88 nM

B6: NP7 (antibody, V domains shown)
VH: EVQLVESGGGLVQPGGSLRLSCAASGFTISNGGIHWVRQAPGKGLEWVAGIGPYGGFTSYADSVKGRFTISADTSKNTAYLQMNSLRAEDTAVYYCARFYSNYYGYHGVMDYWGQGTLVTVSS
VL: DIQMTQSPSSLSASVGDRVTITCRASQDVFGWVAWYQQKPGKAPKLLISYSASLYSGVPSRFSGSGSGTDFTLTISSLQPEDFATYYCQQYFNYPLTFGQGTKVEIKR
- EC50 [1]: 0.821 nM
- EC50 [2]: 2.26 nM

B7: NP3 (antibody, V domains shown)
VH: EVQLVESGGGLVQPGGSLRLSCAASGFTISNYGIHWVRQAPGKGLEWVAGIWPFGGFTSYADSVKGRFTISADTSKNTAYLQMNSLRAEDTAVYYCARFHWNDHGYMDYWGQGTLVTVSS
VL: DIQMTQSPSSLSASVGDRVTITCRASQDVGWYVAWYQQKPGKAPKLLIYSTTGLYSGVPSRFSGSGSGTDFTLTISSLQPEDFATYYCQQYYNYPITFGQGTKVEIKR
- EC50 [1]: 0.828 nM
- EC50 [3]: 0.25 nM
- EC50 [2]: 1.81 nM

B8: NP15 (antibody, V domains shown)
VH: EVQLVESGGGLVQPGGSLRLSCAASGFTISNWYIHWVRQAPGKGLEWVAGIGPYGGSTYYADSVKGRFTISADTSKNTAYLQMNSLRAEDTAVYYCARFHWDHLHGMDYWGQGTLVTVSS
VL: DIQMTQSPSSLSASVGDRVTITCRASQDVDNNVAWYQQKPGKAPKLLISYSTGLYSGVPSRFSGSGSGTDFTLTISSLQPEDFATYYCQQYWNYPITFGQGTKVEIKR
- EC50 [1]: 0.779 nM
- EC50 [3]: 0.449 nM
- EC50 [2]: 2.52 nM

B9: NP5 (antibody, V domains shown)
VH: EVQLVESGGGLVQPGGSLRLSCAASGFTISNGSIHWVRQAPGKGLEWVAGIWPSGGSTSYADSVKGRFTISADTINNSAYLQMNSLRAEDTAVYYCARWNYWGQGTLVTVSS
VL: DIQMTQSPSSLSASVGDRVTITCRASQDVGWSVAWYQQKPGKAPKLLIYGSRWLYSGVPSRFSGSGSGTDFTLTISSLQPEDFATYYCQQGYNGPLTFGQGTKVEIKR
- EC50 [1]: 0.879 nM
- EC50 [2]: 3.13 nM

B10: NP18 (antibody, V domains shown)
VH: EVQLVESGGGLVQPGGSLRLSCAASGFTISGGGIHWVRQAPGKGLEWVASIWPSWGSTSYADSVKGRFTISADTSKNTAYLQMNSLRAEDTAVYYCARFHNGGFLVMDYWGQGTLVTVSS
VL: DIQMTQSSSSLSASVGDRVTITCRASQDVGYYVAWYQQKPGKAPKLLIYGPRFLYSGVPSRFSGSGSGTDFTLTISSLQPEDFATYYCQQYSNWPITFGQGTKVEIKR
- EC50 [1]: 1000 nM
- EC50 [3]: 0.192 nM

B11: NP6 (antibody, V domains shown)
VH: EVQLVESGGGLVQPGGSLRLSCAASGFTINDGSIHWVRQAPGKGLEWVAGIGPFGGFTYYADSVKGRFTISADTSKNTAYLQMNSLRAEDTAVYYCARSGYSGSFDYWGQGTLVTVSS
VL: DIQMTQSPSSLSASVGDRVTITCRASQDVYFGVAWYQQKPGKAPKLLIYGTSYLYSGVPSRFSGSGSGTDFTLTISSLQPEDFATYYCQQFSNWPITFGQGTKVEIKR
- EC50 [1]: 1.98 nM
- EC50 [2]: 2.7 nM
